Laboratory results: publication PMC12257531, “Chaperone-Mediated Regulation of Tau Phase Separation, Fibrillation, and Toxicity” (Journal of the American Chemical Society, 2025)

Target: Tau441 (recombinant full-length Tau protein), monomeric (UniProt P10636-8 1-441)
Assay: cell-based or functional assay

Chain of Tau441 (recombinant full-length Tau protein), monomeric (P10636 other isoform, or with tags, fused parts or gaps): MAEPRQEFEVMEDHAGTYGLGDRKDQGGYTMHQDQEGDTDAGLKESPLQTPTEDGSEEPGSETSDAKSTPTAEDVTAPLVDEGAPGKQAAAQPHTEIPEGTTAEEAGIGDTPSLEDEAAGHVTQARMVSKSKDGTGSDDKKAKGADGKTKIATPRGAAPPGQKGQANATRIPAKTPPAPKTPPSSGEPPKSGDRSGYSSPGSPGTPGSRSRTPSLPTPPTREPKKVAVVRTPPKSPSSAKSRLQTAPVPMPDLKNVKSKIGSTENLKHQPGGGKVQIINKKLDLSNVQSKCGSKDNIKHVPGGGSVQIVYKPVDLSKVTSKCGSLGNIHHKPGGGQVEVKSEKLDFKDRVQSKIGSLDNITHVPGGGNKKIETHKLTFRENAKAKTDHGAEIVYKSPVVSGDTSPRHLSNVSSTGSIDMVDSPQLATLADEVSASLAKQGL

B1: Bri2 BRICHOS domain R221E (residues 113-231 of Bri2), oligomeric fraction (domain or fragment, human)
chain: GSQTIEENIKIFEEEEVEFISVPVPEFADSDPANIVHDFNKKLTAYLDLNLDKCYVIPLNTSIVMPPRNLLELLINIKAGTYLPQSYLIHEHMVITDRIENIDHLGFFIYELCHDKETYKL
- turbidity (absorbance at 350 nm) of 20 uM Tau441 with 8% PEG8000 and sub- to superstoichiometric Bri2 BRICHOS, relative to Tau441 droplets alone: 2 fold
